In one experiment the target is limd1_mouse Limd1 (UniProt Q9QXD8).
For another experiment, the target named is ajuba_mouse Ajuba (UniProt Q91XC0).

Chain of limd1_mouse Limd1 (Q9QXD8 whole entry): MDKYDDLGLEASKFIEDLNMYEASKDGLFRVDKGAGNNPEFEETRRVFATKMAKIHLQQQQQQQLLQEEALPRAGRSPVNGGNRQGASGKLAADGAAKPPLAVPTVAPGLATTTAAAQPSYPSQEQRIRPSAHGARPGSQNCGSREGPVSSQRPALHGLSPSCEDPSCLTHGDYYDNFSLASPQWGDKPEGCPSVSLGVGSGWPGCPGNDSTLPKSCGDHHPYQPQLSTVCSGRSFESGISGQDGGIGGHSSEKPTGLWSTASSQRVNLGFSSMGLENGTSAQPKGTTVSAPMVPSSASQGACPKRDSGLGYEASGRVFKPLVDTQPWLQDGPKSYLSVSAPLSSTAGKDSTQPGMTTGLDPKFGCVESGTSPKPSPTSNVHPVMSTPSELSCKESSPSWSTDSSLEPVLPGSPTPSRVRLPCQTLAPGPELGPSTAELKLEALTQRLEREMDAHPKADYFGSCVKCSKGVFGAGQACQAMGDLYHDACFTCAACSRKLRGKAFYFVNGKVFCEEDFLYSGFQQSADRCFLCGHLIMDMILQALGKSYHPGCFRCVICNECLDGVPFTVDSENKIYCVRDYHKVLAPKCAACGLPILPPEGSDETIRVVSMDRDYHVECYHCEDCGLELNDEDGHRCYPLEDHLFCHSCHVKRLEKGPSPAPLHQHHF

Regarding “Zinc finger protein Gfi-1 (Homo sapiens), Q99684 F5A”, the “effect of a mutation on the interaction” value in the experiment with limd1_mouse Limd1 and with ajuba_mouse Ajuba was “disrupting interaction” throughout.

Regarding “Zinc finger protein Gfi-1 (Homo sapiens), Q99684 F5A;L6A;V7A”, the “effect of a mutation on the interaction” value in the experiment with limd1_mouse Limd1 and in the experiment with ajuba_mouse Ajuba was “disrupting interaction” throughout.

As for “Zinc finger protein Gfi-1 (Homo sapiens), Q99684 K10A;K11A”, the “effect of a mutation on the interaction” value in the experiment with limd1_mouse Limd1 and with ajuba_mouse Ajuba was “disrupting interaction” throughout.

(Values after IntAct's records for PubMed 17909014.)
